The target of one assay is HLA-A*01:01. In words: IEDB peptide-MHC binding, purified MHC/competitive/radioactivity; filed as Kd, often an IC50 or EC50 that approximates it; ≥ and ≤ were set here for values at or beyond the usual limits of such assays.
The target in assay [1] is HLA-B*15:01. The assay is described as above.
A further assay concerns the target HLA-B*08:01. The assay is described as above. The following applies: source organism: Vaccinia virus Copenhagen.
In assay [2] the target is HLA-A*02:01. Put plainly: IEDB peptide-MHC binding, purified MHC/competitive/fluorescence; filed as Kd, often an IC50 or EC50 that approximates it; ≥ and ≤ were set here for values at or beyond the usual limits of such assays. The following applies: source organism: Vaccinia virus WR.
The target of the next assay is HLA-B*40:01. In words: IEDB peptide-MHC binding, purified MHC/competitive/radioactivity; filed as Kd, often an IC50 or EC50 that approximates it; ≥ and ≤ were set here for values at or beyond the usual limits of such assays.
In another assay the target is HLA-B*07:02. Described as above. The settings on record: source organism: Dengue virus 1 Brazil/97-11/1997.
Another assay has as its target HLA-B*35:01. The assay is described as above. The following applies: source organism: Dengue virus 1 Brazil/97-11/1997.
A further assay concerns the target HLA-B*51:01. Described as above. The settings on record: source organism: Dengue virus 1 Brazil/97-11/1997.
A further assay deals with HLA-A*02:02. The assay is described as above.
Another assay deals with HLA-A*02:03. The assay is described as above.
Another assay deals with HLA-A*02:06. The description is as above.
In another assay the target is HLA-A*23:01. Described as above.
The target in a further assay is HLA-A*24:02. The description is as above.
For a further assay, the target named is HLA-A*26:01. The description is as above.
The target of another assay is HLA-A*29:02. Described as above.
The next assay concerns the target HLA-A*30:02. The description is as above.
A further assay addresses HLA-A*30:01. The assay is described as above.
The target in the next assay is HLA-A*32:01. Described as above.
Assay [3] addresses HLA-A*02:01. The assay is described as above.
In assay [4] the target is HLA-B*15:01. In words: IEDB peptide-MHC binding, purified MHC/competitive/fluorescence; filed as Kd, often an IC50 or EC50 that approximates it; ≥ and ≤ were set here for values at or beyond the usual limits of such assays.
The mark [5] stands for this setting: source organism: Dengue virus 4 Philippines/H241/1956.
Setting [6] is: source organism: Vaccinia virus WR.
[7] abbreviates: source organism: SARS coronavirus Tor2.
The mark [8] stands for this setting: source organism: Mammarenavirus juninense.
The mark [9] stands for this setting: source organism: Vaccinia virus Copenhagen.
Where [10] appears, read: source organism: Mammarenavirus guanaritoense.

By Kd is commonly meant the equilibrium constant for the complex coming apart.

Regarding TVIDLEPISY, the values for the Kd with HLA-A*01:01 (setting [5]) and in the assay with HLA-B*15:01 [1] (setting [5]) were 8.39 µM and 1.36 nM, respectively.

As for RMFHFFEHE, in the assay with HLA-B*15:01 [1] (setting [6]), the Kd is 66.9 nM.

With LLKFRVESC, the equilibrium dissociation constant (Kd) with HLA-B*08:01 was 74.4 nM.

In the assay with HLA-A*02:01 [2], AINVEKIEL displayed a dissociation constant Kd of at least 20 µM.

Consider LEYTIVITPH, for which the Kd with HLA-B*40:01 (source organism: Dengue virus 2 Jamaica/1409/1983) worked out at 2470 nM.

As to MPVTVASAAQ, the Kd with HLA-B*07:02 was 446 nM; with HLA-B*35:01 it was 391 nM; with HLA-B*51:01, at least 69.6 µM.

Consider TMADLVYAL, for which the Kd is at least 62.5 µM with HLA-A*01:01 (setting [7]); 0.183 nM with HLA-A*02:02 (setting [7]); 16.2 nM with HLA-A*02:03 (setting [7]); 46.5 nM with HLA-A*02:06 (setting [7]); 6.58 µM in the assay with HLA-A*23:01 (setting [7]); 10.1 µM with HLA-A*24:02 (setting [7]). The Kd in the assay with HLA-A*26:01 (setting [7]) is at least 77.9 µM; with HLA-A*29:02 (setting [7]), at least 23 µM; with HLA-A*30:02 (setting [7]), at least 93.8 µM.

LINNGKCTF: the Kd in the assay with HLA-B*15:01 [1] (setting [6]) came to 61.9 nM.

Regarding ANISTILYF, in the assay with HLA-B*15:01 [1] (setting [6]), the Kd worked out at 128 nM.

Take VEAGRTLRVL: the Kd with HLA-B*40:01 (source organism: Dengue virus 2 Peru/IQT2913/1996) turned out to be 12.1 nM.

With LEFEALGFLN, the Kd in the assay with HLA-B*40:01 (source organism: Murray valley encephalitis virus (strain MVE-1-51)) turned out to be 144 nM.

As for GEKSRCYSIY, the Kd was 13.9 µM with HLA-A*01:01 (setting [8]); at least 70 µM with HLA-A*23:01 (setting [8]); at least 70.3 µM in the assay with HLA-A*24:02 (setting [8]); 18 µM in the assay with HLA-A*26:01 (setting [8]); at least 51.8 µM with HLA-A*29:02 (setting [8]); 2190 nM in the assay with HLA-A*30:01 (setting [8]). Moreover, the Kd with HLA-A*30:02 (setting [8]) was 3.16 µM; in the assay with HLA-A*32:01 (setting [8]) it was at least 69900 nM.

As for ALCKVTVPT, the Kd turned out to be 31 nM with HLA-A*02:01 [3] (setting [6]), 110 nM in the assay with HLA-A*02:02 (setting [6]), 130 nM with HLA-A*02:03 (setting [6]) and 210 nM with HLA-A*02:06 (setting [6]).

In the assay with HLA-B*15:01 [4] (source organism: Escherichia coli 101-1), TQWCSRSVY had a Kd of 84.3 nM.

Consider AQGKPTLDF, for which the Kd in the assay with HLA-B*15:01 [1] (setting [5]) is 3.09 nM.

As to YVFFEIIHF, the Kd with HLA-B*15:01 [1] (setting [9]) came to 0.692 nM.

As for FQTLMHSPF, the Kd with HLA-B*15:01 [4] (source organism: Bacillus cereus G9241) turned out to be 23.1 nM.

In the case of VEETNMITL, in the assay with HLA-B*40:01 (source organism: Dengue virus 4 Dominica/814669/1981), the Kd stood at 27.1 nM.

In the assay with HLA-B*15:01 [4] (source organism: Escherichia coli 536), FSPRLCRPF showed a Kd of 325 nM.

Take SMPDFDLHL: the Kd in the assay with HLA-A*02:01 [3] (source organism: Homo sapiens) is 5.2 nM.

Take LSEKWFTHA: in the assay with HLA-B*15:01 [1] (setting [6]), the Kd was determined as 19100 nM.

On to HTNFESFTV, for which the equilibrium dissociation constant (Kd) with HLA-A*01:01 (setting [10]) is 0.44 µM; in the assay with HLA-A*23:01 (setting [10]), at least 48.2 µM; with HLA-A*24:02 (setting [10]) it was at least 77.5 µM; in the assay with HLA-A*26:01 (setting [10]), at least 36.6 µM; with HLA-A*29:02 (setting [10]) it was 11.2 µM; with HLA-A*30:01 (setting [10]), 182 nM. Further, the Kd was 0.971 µM with HLA-A*30:02 (setting [10]) and 682 nM with HLA-A*32:01 (setting [10]).

In the case of EIFKHLVFF, the Kd in the assay with HLA-B*15:01 [1] (setting [6]) amounted to 12.2 nM.

On to LPQHLTLRAQ, for which the values for the Kd with HLA-B*07:02, with HLA-B*35:01 and with HLA-B*51:01 were 265 nM, 520 nM and at least 31.7 µM, respectively.

Turning to LIIICCVSG, the Kd in the assay with HLA-B*15:01 [1] (setting [9]) was 403 nM.

With SNAAIGAVF, the Kd with HLA-B*15:01 [1] (source organism: Dengue virus 1 Brazil/97-11/1997) was determined as 77.8 nM.

Values taken from the Immune Epitope Database (IEDB).
